Here are results for nine molecules from patent publication US20230174655A1 (published 2023).

T1: FcγRIIa type R extracellular domain with C-terminal His tag (human, UniProt P12318 34-217)
T1 chain: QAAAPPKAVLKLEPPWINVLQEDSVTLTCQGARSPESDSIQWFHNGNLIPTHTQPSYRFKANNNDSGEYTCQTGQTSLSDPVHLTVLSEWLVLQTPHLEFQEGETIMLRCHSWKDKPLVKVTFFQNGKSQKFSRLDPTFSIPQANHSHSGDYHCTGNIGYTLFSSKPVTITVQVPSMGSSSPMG

B1: IL6R-BF063/IL6R-L (antibody, human IgG1, kappa)
heavy: QVQLQESGPGLVKPSETLSLTCAVSGHSISHDHAWSWVRQPPGEGLEWIGFISYSGITNYNPSLQGRVTISRDNSKNTLYLQMNSLRAEDTAVYYCARSLARTTAMDYWGEGTLVTVSSASTKGPSVFPLAPSSKSTSGGTAALGCLVKDYFPEPVTVSWNSGALTSGVHTFPAVLQSSGLYSLSSVVTVPSSSLGTQTYICNVNHKPSNTKVDKKVEPKSCDKTHTCPPCPAPEYLGGDSVFLFPPKPKDTLMISRTPEVTCVVVDVSHEDPEVKFNWYVDGVEVHNAKTKPREEQYNSTYRVVSVLTVLHQDWLNGKEYKCKVSNAALPKPIEKTISKAKGQPREPQVYTLPPSRDELTKNQVSLTCLVKGFYPSDIAVEWESNGQPENNYKTTPPVLDSDGSFFLYSKLTVDKSRWQQGNVFSCSVMHEALHNHYTQESLSLSP
light: not shown
notes: alteration printed: L234Y/P236D/K326A/A330K; also called IL6R-BF089/IL6R-L; copies: 2 + 2
B2: IL6R-BF185/IL6R-L (H chain SEQ ID NO 98) (antibody, human IgG1, kappa)
heavy: QVQLQESGPGLVKPSETLSLTCAVSGHSISHDHAWSWVRQPPGEGLEWIGFISYSGITNYNPSLQGRVTISRDNSKNTLYLQMNSLRAEDTAVYYCARSLARTTAMDYWGEGTLVTVSSASTKGPSVFPLAPSSKSTSGGTAALGCLVKDYFPEPVTVSWNSGALTSGVHTFPAVLQSSGLYSLSSVVTVPSSSLGTQTYICNVNHKPSNTKVDKKVEPKSCDKTHTCPPCPAPDYLGGDSVFLFPPKPKDTLMISRTPEVTCVVVDVSHEDGEVKFNWYVDGVEVHNAKTKPREEQYNSTYRVVSVLTVLHQDWLNGKEYKCKVSNAALPKPIEKTISKAKGQPREPQVYTLPPSRDELTKNQVSLTCLVKGFYPSDIAVEWESNGQPENNYKTTPPVLDSDGSFFLYSKLTVDKSRWQQGNVFSCSVMHEALHNHYTQESLSLSP
light: not shown
notes: alteration printed: B233D/L234Y/P238D/P271G/K326A/A330K; also called IL6R-BF138/IL6R-L; copies: 2 + 2
B3: IL6R-BF179/IL6R-L (antibody, human IgG1, kappa)
heavy: QVQLQESGPGLVKPSETLSLTCAVSGHSISHDHAWSWVRQPPGEGLEWIGFISYSGITNYNPSLQGRVTISRDNSKNTLYLQMNSLRAEDTAVYYCARSLARTTAMDYWGEGTLVTVSSASTKGPSVFPLAPSSKSTSGGTAALGCLVKDYFPEPVTVSWNSGALTSGVHTFPAVLQSSGLYSLSSVVTVPSSSLGTQTYICNVNHKPSNTKVDKKVEPKSCDKTHTCPPCPAPELLGDDSVFLFPPKPKDTLMISRTPEVTCVVVDVSHEDGEVKFNWYVDGVEVHNAKTKPREEQYNSTYRVVSVLTVLHQDWLNGKEYKCKVSNAALPKPIEKTISKAKGQPREPQVYTLPPSRDELTKNQVSLTCLVKGFYPSDIAVEWESNGQPENNYKTTPPVLDSDGSFFLYSKLTVDKSRWQQGNVFSCSVMHEALHNHYTQESLSLSP
light: not shown
notes: alteration printed: G237D/P238D/P271G/K326A/A330K; copies: 2 + 2
B4: IL6R-BF186/IL6R-L (antibody, human IgG1, kappa)
heavy: QVQLQESGPGLVKPSETLSLTCAVSGHSISHDHAWSWVRQPPGEGLEWIGFISYSGITNYNPSLQGRVTISRDNSKNTLYLQMNSLRAEDTAVYYCARSLARTTAMDYWGEGTLVTVSSASTKGPSVFPLAPSSKSTSGGTAALGCLVKDYFPEPVTVSWNSGALTSGVHTFPAVLQSSGLYSLSSVVTVPSSSLGTQTYICNVNHKPSNTKVDKKVEPKSCDKTHTCPPCPAPDYLGDDSVFLFPPKPKDTLMISRTPEVTCVVVDVSHEDGEVKFNWYVDGVEVHNAKTKPREEQDNSTYRVVSVLTVLHQDWLNGKEYKCKVSNAALPKPIEKTISKAKGQPREPQVYTLPPSRDELTKNQVSLTCLVKGFYPSDIAVEWESNGQPENNYKTTPPVLDSDGSFFLYSKLTVDKSRWQQGNVFSCSVMHEALHNHYTQESLSLSP
light: not shown
notes: alteration printed: B233D/L234Y/G237D/P238D/P271G/Y298D/K326A/A330K; copies: 2 + 2
B5: IL6R-BF185/IL6R-L (H chain SEQ ID NO 100) (antibody, human IgG1, kappa)
heavy: QVQLQESGPGLVKPSETLSLTCAVSGHSISHDHAWSWVRQPPGEGLEWIGFISYSGITNYNPSLQGRVTISRDNSKNTLYLQMNSLRAEDTAVYYCARSLARTTAMDYWGEGTLVTVSSASTKGPSVFPLAPSSKSTSGGTAALGCLVKDYFPEPVTVSWNSGALTSGVHTFPAVLQSSGLYSLSSVVTVPSSSLGTQTYICNVNHKPSNTKVDKKVEPKSCDKTHTCPPCPAPDYLGDDSVFLFPPKPKDTLMISRTPEVTCVVVDVSHEDGEVKFNWYVDGVEVHNAKTKPREEQYNSTYRVVSVLTVLHQDWLNGKEYKCKVSNAALPKPIEKTISKAKGQPREPQVYTLPPSRDELTKNQVSLTCLVKGFYPSDIAVEWESNGQPENNYKTTPPVLDSDGSFFLYSKLTVDKSRWQQGNVFSCSVMHEALHNHYTQESLSLSP
light: not shown
notes: alteration printed: B233D/L234Y/G237D/P238D/P271G/K326A/A330K; copies: 2 + 2
B6: IL6R-BF085/IL6R-L (H chain SEQ ID NO 71) (antibody, human IgG1, kappa)
heavy: QVQLQESGPGLVKPSETLSLTCAVSGHSISHDHAWSWVRQPPGEGLEWIGFISYSGITNYNPSLQGRVTISRDNSKNTLYLQMNSLRAEDTAVYYCARSLARTTAMDYWGEGTLVTVSSASTKGPSVFPLAPSSKSTSGGTAALGCLVKDYFPEPVTVSWNSGALTSGVHTFPAVLQSSGLYSLSSVVTVPSSSLGTQTYICNVNHKPSNTKVDKKVEPKSCDKTHTCPPCPAPELLGDDSVFLFPPKPKDTLMISRTPEVTCVVVDVSHEDPEVKFNWYVDGVEVHNAKTKPREEQYNSTYRVVSVLTVLHQDWLNGKEYKCKVSNKALPKPIEKTISKAKGQPREPQVYTLPPSRDELTKNQVSLTCLVKGFYPSDIAVEWESNGQPENNYKTTPPVLDSDGSFFLYSKLTVDKSRWQQGNVFSCSVMHEALHNHYTQESLSLSP
light: not shown
notes: alteration printed: G237D/P238D/A330K; also called IL6R-BF065/IL6R-L; copies: 2 + 2
B7: IL6R-BF147/IL6R-L (antibody, human IgG1, kappa)
heavy: QVQLQESGPGLVKPSETLSLTCAVSGHSISHDHAWSWVRQPPGEGLEWIGFISYSGITNYNPSLQGRVTISRDNSKNTLYLQMNSLRAEDTAVYYCARSLARTTAMDYWGEGTLVTVSSASTKGPSVFPLAPSSKSTSGGTAALGCLVKDYFPEPVTVSWNSGALTSGVHTFPAVLQSSGLYSLSSVVTVPSSSLGTQTYICNVNHKPSNTKVDKKVEPKSCDKTHTCPPCPAPEYLGDDSVFLFPPKPKDTLMISRTPEVTCVVVDVSHEDPEVKFNWYVDGVEVHNAKTKPREEQYNSTYRVVSVLTVLHQDWLNGKEYKCKVSNAALPKPIEKTISKAKGQPREPQVYTLPPSRDELTKNQVSLTCLVKGFYPSDIAVEWESNGQPENNYKTTPPVLDSDGSFFLYSKLTVDKSRWQQGNVFSCSVMHEALHNHYTQESLSLSP
light: not shown
notes: alteration printed: L234Y/G237D/P238D/K326A/A330K; copies: 2 + 2
B8: IL6R-BF085/IL6R-L (H chain SEQ ID NO 72) (antibody, human IgG1, kappa)
heavy: QVQLQESGPGLVKPSETLSLTCAVSGHSISHDHAWSWVRQPPGEGLEWIGFISYSGITNYNPSLQGRVTISRDNSKNTLYLQMNSLRAEDTAVYYCARSLARTTAMDYWGEGTLVTVSSASTKGPSVFPLAPSSKSTSGGTAALGCLVKDYFPEPVTVSWNSGALTSGVHTFPAVLQSSGLYSLSSVVTVPSSSLGTQTYICNVNHKPSNTKVDKKVEPKSCDKTHTCPPCPAPELLGGDSVFLFPPKPKDTLMISRTPEVTCVVVDVSHEDPEVKFNWYVDGVEVHNAKTKPREEQYNSTYRVVSVLTVLHQDWLNGKEYKCKVSNAALPKPIEKTISKAKGQPREPQVYTLPPSRDELTKNQVSLTCLVKGFYPSDIAVEWESNGQPENNYKTTPPVLDSDGSFFLYSKLTVDKSRWQQGNVFSCSVMHEALHNHYTQESLSLSP
light: not shown
notes: alteration printed: P238D/K326A/A330K; also called IL6R-BF086/IL6R-L; copies: 2 + 2
B9: IL6R-BF176/IL6R-L (antibody, human IgG1, kappa)
heavy: QVQLQESGPGLVKPSETLSLTCAVSGHSISHDHAWSWVRQPPGEGLEWIGFISYSGITNYNPSLQGRVTISRDNSKNTLYLQMNSLRAEDTAVYYCARSLARTTAMDYWGEGTLVTVSSASTKGPSVFPLAPSSKSTSGGTAALGCLVKDYFPEPVTVSWNSGALTSGVHTFPAVLQSSGLYSLSSVVTVPSSSLGTQTYICNVNHKPSNTKVDKKVEPKSCDKTHTCPPCPAPDLLGGDSVFLFPPKPKDTLMISRTPEVTCVVVDVSHEDPEVKFNWYVDGVEVHNAKTKPREEQYNSTYRVVSVLTVLHQDWLNGKEYKCKVSNDALPKPIEKTISKAKGQPREPQVYTLPPSRDELTKNQVSLTCLVKGFYPSDIAVEWESNGQPENNYKTTPPVLDSDGSFFLYSKLTVDKSRWQQGNVFSCSVMHEALHNHYTQESLSLSP
light: not shown
notes: alteration printed: B233D/P238D/K326D/A330K; also called IL6R-BF175/IL6R-L; copies: 2 + 2

For this experiment, the target named is T1, FcγRIIa type R extracellular domain …. The experiment is described as follows: SPR (Biacore), antibody captured, FcgR analyte. The text has this: In the table, SEQ ID NO refers to the SEQ ID NO of the H chain of the evaluated variant, and alteration refers to the alteration introduced into IL6R-B3 (SEQ ID NO: 40). […] Furthermore, KD(IIaR)/KD(IIb) and KD(IIaH)/KD(IIb) in the table respectively represent the value obtained by dividing the KD value of each variant for FcγRIIaR by the KD value of each variant for FcγRIIb, and the value obtained by dividing the KD value of each variant for FcγRIIaH by the KD value of each variant for FcγRIIb. KD(IIb) of the parent polypeptide/KD(IIb) of the altered polypeptide refers to the value obtained by dividing the KD value of the parent polypeptide for FcγRIIb by the KD value of each variant for FcγRIIb.
Kinetic analyses for calculating the KD values of each altered antibody for FcγR were performed according to the following method. First, antibodies of interest were captured onto the above-mentioned sensor chips, and an Fcγ receptor diluted with the running buffer was allowed to interact. The Biacore™ Evaluation Software was used to globally fit the measured results to the obtained sensorgram using the 1:1 Langmuir binding model, and the association rate constant ka (L/mol/s) and the dissociation rate constant kd (1/s) were calculated; and from those values the dissociation constants KD (mol/L) were calculated.
As to B1, binding was put at a Kd of 64 nM. This counts as double-digit nanomolar.
With B2 the figure was 26000 nM; with B3, 14 nM; with B4, 950 nM.
The result for B5 reads 880 nM; that for B6, 4200 nM.
With B7 the figure was 830 nM; with B8, 97 nM; with B9, 69000 nM.
